Measurements from patent US9187525B2, “Methods of treating ophthalmic diseases using NPR-B agonists” (Shire Orphan Therapies GmbH, dated 2015).
Numbered stars: 1 amine (or outer) side, 2 acyl side, 3 side chain; on linkers, the order of the positions; unused ones are H or OH. Square brackets hold non-standard residues; d marks the D form. Ends that are not written are not given here. * marks the point of attachment. Pmy = (S)-para-methoxy-phenylalanine, COc1ccc(C[C@H](N[*:1])C(=O)[*:2])cc1; Pro(trans-4-NH2) = O=C([C@@H]1C[C@@H](N[*:3])CN1[*:1])[*:2]; Sni = (S)-nipecotic acid, O=C([C@H]1CCCN([*:1])C1)[*:2]; Phe(4-NO2) = N[C@@H](Cc1ccc([N+](=O)[O-])cc1)C(=O)O; Pro(trans-4-Ph) = O=C(O)[C@@H]1C[C@@H](c2ccccc2)CN1; NH((S)-tetralin-1-yl) = c1ccc2c(c1)CCC[C@@H]2N*; Phe(3,4-Cl2) = N[C@@H](Cc1ccc(Cl)c(Cl)c1)C(=O)O; Bmf = rac-2-amino-3-phenyl-butyric acid; Phe(4-F) = N[C@@H](Cc1ccc(F)cc1)C(=O)O; Pro(3S-OH) = O=C(O)[C@H]1NCC[C@@H]1O; cisHyp = O=C(O)[C@@H]1C[C@H](O)CN1; Hyp = O=C(O)[C@@H]1C[C@@H](O)CN1; NMeL = CN[C@@H](CC(C)C)C(=O)O; β3hK = NCCCC[C@H](N)CC(=O)O; ΔPro = O=C(O)[C@@H]1C=CCN1; Octanoyl = CCCCCCCC(=O)*; 2906 = cyclobutyl-amine; Ac5c = NC1(C(=O)O)CCCC1; Dap = NC[C@H](N)C(=O)O; Hexanoyl = CCCCCC(=O)*; Paf = not defined here; leu = not defined here; NHcHex = C1CCC(N*)CC1; Occ = octanoic acid

Biological target: T1, natriuretic peptide receptor-B (human)
T1 chain: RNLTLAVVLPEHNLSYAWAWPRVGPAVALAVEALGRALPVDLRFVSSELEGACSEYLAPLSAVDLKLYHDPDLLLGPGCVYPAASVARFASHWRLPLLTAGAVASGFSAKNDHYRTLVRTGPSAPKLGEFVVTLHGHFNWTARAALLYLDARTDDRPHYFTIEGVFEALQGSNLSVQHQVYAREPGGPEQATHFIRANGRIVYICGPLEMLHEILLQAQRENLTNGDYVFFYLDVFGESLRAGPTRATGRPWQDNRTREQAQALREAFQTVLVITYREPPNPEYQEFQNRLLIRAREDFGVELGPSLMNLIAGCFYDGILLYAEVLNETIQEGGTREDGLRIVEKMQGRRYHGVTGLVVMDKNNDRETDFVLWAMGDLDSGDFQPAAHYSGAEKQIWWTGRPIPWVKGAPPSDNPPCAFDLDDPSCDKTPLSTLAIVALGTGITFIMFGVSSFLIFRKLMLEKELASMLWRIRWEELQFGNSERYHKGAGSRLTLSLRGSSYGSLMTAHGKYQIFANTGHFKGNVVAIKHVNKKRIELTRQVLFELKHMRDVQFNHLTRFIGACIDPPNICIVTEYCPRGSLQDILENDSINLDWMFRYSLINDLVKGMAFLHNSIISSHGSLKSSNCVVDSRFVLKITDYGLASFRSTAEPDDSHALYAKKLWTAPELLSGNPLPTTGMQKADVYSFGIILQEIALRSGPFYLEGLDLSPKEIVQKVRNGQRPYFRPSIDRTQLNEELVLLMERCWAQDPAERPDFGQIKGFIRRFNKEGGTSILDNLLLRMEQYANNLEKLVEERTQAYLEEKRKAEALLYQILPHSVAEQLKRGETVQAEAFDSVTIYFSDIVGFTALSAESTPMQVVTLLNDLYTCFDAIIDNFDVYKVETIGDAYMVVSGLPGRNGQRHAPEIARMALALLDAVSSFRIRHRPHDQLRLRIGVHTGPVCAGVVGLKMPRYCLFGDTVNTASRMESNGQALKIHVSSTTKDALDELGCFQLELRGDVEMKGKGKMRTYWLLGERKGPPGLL
Test: cell-based or functional assay

## Octanoyl-[Sni][Bmf][leu]L[Hyp][NMeL]DRI-NH2 (reading uncertain; also: printed as Occ-Sni-Bmf-leu-Leu-Hyp-Nml-Asp-Arg-Ile-) [JAL-1490]
  EC50 group, cGMP in GTM-3 cells: ≤ 15 µM

## Octanoyl-[Sni]F[leu]L[Hyp][NMeL]DPI-OH (reading uncertain; also: printed as Occ-Sni-Phe-leu-Leu-Hyp-Nml-Asp-Pro-Ile-OH) [JAL-1474]
  EC50 group, cGMP in GTM-3 cells: ≤ 15 µM

B1: JAL-1496 (peptide)
peptide: [Occ][Sni][Phe(3,4-Cl2)]LL[Hyp][NMeL]DRI-NH2
modifications: not fully specified (residue 4); printed as Occ-Sni-Eaa-leu-Leu-Hyp-Nml-Asp-Arg-Ile-NH2
  EC50 group, cGMP in GTM-3 cells: ≤ 1 µM

B2: JAL-1479 (peptide)
peptide: Octanoyl-AF[leu]L[Hyp][NMeL]D[ΔPro]I-NH2
modifications: not fully specified (some residues); printed as Occ-ala-Phe-leu-Leu-Hyp-Nml-Asp-Dhp-Ile-NH2; reading uncertain
  EC50 group, cGMP in GTM-3 cells: ≤ 5 µM

B3: JAL-1506 (peptide)
peptide: [Occ][Sni]FLL[Hyp][NMeL]DP[NH((S)-tetralin-1-yl)]
modifications: not fully specified (residue 4); printed as Occ-Sni-Phe-leu-Leu-Hyp-Nml-Asp-Pro-2118
  EC50 group, cGMP in GTM-3 cells: ≤ 5 µM

B4: JAL-1462 (peptide)
peptide: Octanoyl-[dA]FXL[Pro(trans-4-NH2)][NMeL]DRI-NH2
modifications: not fully specified (some residues); printed as Occ-ala-Phe-dap(3846)2-Leu-Tap-Nml-Asp-Arg-Ile-NH2
  EC50 group, cGMP in GTM-3 cells: ≤ 5 µM

## Octanoyl-[Sni]F[dL]L[Hyp][NMeL]DP[NHcHex] [JAL-1464]
  EC50 group, cGMP in GTM-3 cells: ≤ 5 µM

B5: JAL-1475 (peptide)
peptide: Octanoyl-[Sni]F[leu]L[Hyp][NMeL]DPI-NHMe
modifications: reading uncertain; also: printed as Occ-Sni-Phe-leu-Leu-Hyp-Nml-Asp-Pro-Ile-(NH-CH3)
  EC50 group, cGMP in GTM-3 cells: ≤ 5 µM

B6: JAL-1463 (peptide)
peptide: Octanoyl-[dA]FXL[Pro(trans-4-NH2)][NMeL]DRI-NH2
modifications: not fully specified (some residues); printed as Occ-ala-Phe-dap(1464)-Leu-Tap-Nml-Asp-Arg-Ile-NH2
  EC50 group, cGMP in GTM-3 cells: ≤ 1 µM

B7: JAL-1508 (peptide)
peptide: [Occ][Sni]FLL[Hyp][NMeL]DP[2906]
modifications: not fully specified (residue 4); printed as Occ-Sni-Phe-leu-Leu-Hyp-Nml-Asp-Pro-2906
  EC50 group, cGMP in GTM-3 cells: ≤ 15 µM

B8: JAL-1476 (peptide)
peptide: Octanoyl-AF[leu]L[Hyp][NMeL]D[cisHyp]I-NH2
modifications: not fully specified (some residues); printed as Occ-ala-Phe-leu-Leu-Hyp-Nml-Asp-Chy-Ile-NH2; reading uncertain
  EC50 group, cGMP in GTM-3 cells: ≤ 5 µM

B9: JAL-1483 (peptide)
peptide: Octanoyl-AF[leu]L[Hyp][NMeL]D[β3hK]I-NH2
modifications: not fully specified (some residues); printed as Occ-ala-Phe-leu-Leu-Hyp-Nml-Asp-Bhk-Ile-NH2; reading uncertain
  EC50 group, cGMP in GTM-3 cells: ≤ 5 µM

B10: JAL-1461 (peptide)
peptide: Octanoyl-[dA]FXL[Pro(trans-4-NH2)][NMeL]DRI-NH2
modifications: not fully specified (some residues); printed as Occ-ala-Phe-dap(6238)-Leu-Tap-Nml-Asp-Arg-Ile-NH2
  EC50 group, cGMP in GTM-3 cells: ≤ 5 µM

## Octanoyl-[Sni][Phe(4-F)][leu]L[Hyp][NMeL]DRI-NH2 (reading uncertain; also: printed as Occ-Sni-Pff-leu-Leu-Hyp-Nml-Asp-Arg-Ile-NH2) [JAL-1487]
  EC50 group, cGMP in GTM-3 cells: ≤ 1 µM

B11: JAL-0656 (peptide)
peptide: XXFGLKLDRI
HELM: PEPTIDE1{[CCCCCC(=O)[*:2]].[O=C1[C@@H](N[*:1])CCCCN1CC(=O)[*:2]].F.G.L.K.L.D.R.I.[am]}$$$$V2.0
SMILES: CCCCCC(=O)N[C@H]1CCCCN(CC(=O)N[C@@H](Cc2ccccc2)C(=O)NCC(=O)N[C@@H](CC(C)C)C(=O)N[C@@H](CCCCN)C(=O)N[C@@H](CC(C)C)C(=O)N[C@@H](CC(=O)O)C(=O)N[C@@H](CCCNC(=N)N)C(=O)N[C@H](C(N)=O)[C@@H](C)CC)C1=O
  EC50 group, cGMP in GTM-3 cells: ≤ 15 µM

B12: JAL-1494 (peptide)
peptide: Octanoyl-[Sni]X[leu]L[Hyp][NMeL]DRI-NH2
modifications: not fully specified (some residues); printed as Occ-Sni-Pmf-leu-Leu-Hyp-Nml-Asp-Arg-Ile-NH2
  EC50 group, cGMP in GTM-3 cells: ≤ 1 µM

B13: JAL-0657 (peptide)
peptide: XXFGLKLDRI
HELM: PEPTIDE1{[CCCCCC(=O)[*:2]].[O=C([C@H]1CCC[C@@H](N[*:1])C1)[*:2]].F.G.L.K.L.D.R.I.[am]}$$$$V2.0
SMILES: CCCCCC(=O)N[C@@H]1CCC[C@H](C(=O)N[C@@H](Cc2ccccc2)C(=O)NCC(=O)N[C@@H](CC(C)C)C(=O)N[C@@H](CCCCN)C(=O)N[C@@H](CC(C)C)C(=O)N[C@@H](CC(=O)O)C(=O)N[C@@H](CCCNC(=N)N)C(=O)N[C@H](C(N)=O)[C@@H](C)CC)C1
  EC50 group, cGMP in GTM-3 cells: ≤ 15 µM

## Octanoyl-[Sni][Pro(trans-4-Ph)][leu]L[Hyp][NMeL]DRI-NH2 (reading uncertain; also: printed as Occ-Sni-Eay-leu-Leu-Hyp-Nml-Asp-Arg-Ile-NH2) [JAL-1491]
  EC50 group, cGMP in GTM-3 cells: ≤ 5 µM

## Hexanoyl-[dA][dA]FGLKLDR[Ac5c]-NH2 [JAL-0692]
  EC50 group, cGMP in GTM-3 cells: ≤ 15 µM

## Octanoyl-[Sni]Y[leu]L[Hyp][NMeL]DRI-NH2 (reading uncertain; also: printed as Occ-Sni-Tyr-leu-Leu-Hyp-Nml-Asp-Arg-Ile-NH2) [JAL-1489]
  EC50 group, cGMP in GTM-3 cells: ≤ 15 µM

## Octanoyl-[Sni][Paf][leu]L[Hyp][NMeL]DRI-NH2 (reading uncertain; also: printed as Occ-Sni-Paf-leu-Leu-Hyp-Nml-Asp-Arg-Ile-NH2) [JAL-1492]
  EC50 group, cGMP in GTM-3 cells: ≤ 5 µM

B14: JAL-1477 (peptide)
peptide: Octanoyl-AF[leu]L[Hyp][NMeL]D[Pro(3S-OH)]I-NH2
modifications: not fully specified (some residues); printed as Occ-ala-Phe-leu-Leu-Hyp-Nml-Asp-H3p-Ile-NH2; reading uncertain
  EC50 group, cGMP in GTM-3 cells: ≤ 5 µM

## Octanoyl-[Sni][Pmy][leu]L[Hyp][NMeL]DRI-NH2 (reading uncertain; also: printed as Occ-Sni-Pmy-leu-Leu-Hyp-Nml-Asp-Arg-Ile-) [JAL-1488]
  EC50 group, cGMP in GTM-3 cells: ≤ 5 µM

B15: JAL-1482 (peptide)
peptide: Octanoyl-AF[leu]L[Hyp][NMeL]D[Dap]I-NH2
modifications: not fully specified (some residues); printed as Occ-ala-Phe-leu-Leu-Hyp-Nml-Asp-Udp-Ile-NH2; reading uncertain
  EC50 group, cGMP in GTM-3 cells: ≤ 5 µM

## Octanoyl-[Sni][Phe(4-NO2)][leu]L[Hyp][NMeL]DRI-NH2 (reading uncertain; also: printed as Occ-Sni-Nif-leu-Leu-Hyp-Nml-Asp-Arg-Ile-NH2) [JAL-1486]
  EC50 group, cGMP in GTM-3 cells: ≤ 5 µM

B16: JAL-1493 (peptide)
peptide: Octanoyl-[Sni]X[leu]L[Hyp][NMeL]DRI-NH2
modifications: not fully specified (some residues); printed as Occ-Sni-Pcf-leu-Leu-Hyp-Nml-Asp-Arg-Ile-NH2
  EC50 group, cGMP in GTM-3 cells: ≤ 1 µM
